Results from US20230270877A1, “Combination Therapy” (Seagen Inc., priority 2020, published 2023).

Columns and labels:
[1] = biological target: T1, human FcγRIIIa (Homo sapiens, UniProt P08637); experiment: FcγR binding by flow cytometry on transfected CHO cells; details: FIG. 11B-D
T1 construct: expressed in transfected cells; host or cells: CHO cells
Procedure: (§1) CHO cells were incubated with increasing concentrations of antibodies and a secondary antibody used to assess binding as monitored by flow cytometry.
(§2) For each cell line, 50 million cells were washed once in 50 mL of PBS. Cells were counted again and resuspended at 2.2 million cells/mL in BD stain buffer. Cells were plated in a 96-well round bottom plate at 0.1 mL of cells per well.
(§3) Antibody solutions were diluted to make the following final concentrations: 3 mg/mL, 1 mg/mL, 0.3 mg/mL, 0.1 mg/mL, 0.03 mg/mL, 0.01 mg/mL, 0.003 mg/mL, 0.001 mg/mL, 0.0003 mg/mL. Each antibody solution was diluted at 10×(i.e., […] of media) to produce the following concentrations: 300, 100, 30, 10, 3, 1, […] μg/ml. Media was removed from the cells and the cells were washed with media. 100 μL of antibody solution was added to each well. Antibody solutions were added with decreasing concentrations in the vertical direction. […]
(§4) Next, PE conjugated anti-human IgG Fc antibody was prepared (1/50 dilution of 1 mg/ml concentration=[…] saturating concentration) in BD stain buffer. […] Cells were resuspended in PBS+1% paraformaldehyde and kept at 4° C. until they were analyzed by flow cytometry. Samples were analyzed using the Attune flow cytometer. […]

[2] = biological target: T2, human FcγRIIb (Homo sapiens, UniProt P31994); experiment: as above; details: FIG. 11B-D
T2 construct: expressed in transfected cells; host or cells: CHO cells
T2 sequence (P31994 43-310): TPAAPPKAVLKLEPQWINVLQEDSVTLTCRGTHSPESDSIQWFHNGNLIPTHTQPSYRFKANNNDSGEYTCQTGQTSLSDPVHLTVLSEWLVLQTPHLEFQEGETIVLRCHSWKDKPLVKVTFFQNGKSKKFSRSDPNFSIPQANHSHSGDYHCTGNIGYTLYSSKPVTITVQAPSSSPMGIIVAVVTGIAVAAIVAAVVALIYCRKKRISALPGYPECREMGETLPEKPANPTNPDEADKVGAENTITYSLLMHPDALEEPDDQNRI
Procedure: as §1, §2, §3, §4

[3] = test system: Farage cells; type: in vivo; details: single agent, SEA-CD70 3 mg/kg or SGN-35 1 mg/kg
[4] = test system: MM1S MM cells; experiment: Disseminated MM xenograft survival model (MM1S); type: in vivo, SCID animals; details: 0.1 mg/kg SEA-BCMA weekly x5 IP and/or 0.01 mg/kg SGN-CD48A once IP; N=8/group; FIG. 21A
Procedure: MM1S MM cells were injected IV into SCID animals, which contain active innate immune effector cells to mediate ADCP and ADCC. Seven days post implant, dosing was initiated with 0.1 mg/kg SEA-BCMA and/or 0.01 mg/kg SGN-CD48A, and animals were monitored for survival. SEA-BCMA was dosed weekly for 5 weeks IP and SGN-CD48A was dosed once IP. Animals were followed for 160 days for survival (N=8/group). By day 51, all untreated animals had been humanely euthanized according to IACUC protocols.

T1 sequence (P08637 17-254): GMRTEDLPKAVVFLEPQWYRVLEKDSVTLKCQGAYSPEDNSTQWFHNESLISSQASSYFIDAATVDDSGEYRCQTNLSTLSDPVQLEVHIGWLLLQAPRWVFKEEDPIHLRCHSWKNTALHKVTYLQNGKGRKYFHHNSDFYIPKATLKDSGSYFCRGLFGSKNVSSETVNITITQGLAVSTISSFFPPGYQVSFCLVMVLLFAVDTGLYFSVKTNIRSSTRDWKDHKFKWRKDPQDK

B1: SEA-CD40: nonfucosylated, humanized version of murine S2C6 anti-CD40; VH and VL of SEQ ID NOs: 28 and 29 (antibody, V domains shown)
VH: EVQLVESGGGLVQPGGSLRLSCAASGYSFTGYYIHWVRQAPGKGLEWVARVIPNAGGTSYNQKFKGRFTLSVDNSKNTAYLQMNSLRAEDTAVYYCAREGIYWWGQGTLVTVSS
VL: DIQMTQSPSSLSASVGDRVTITCRSSQSLVHSNGNTFLHWYQQKPGKAPKLLIYTVSNRFSGVPSRFSGSGSGTDFTLTISSLQPEDFATYFCSQTTHVPWTFGQGTKVEIK
modifications: nonfucosylated; VH of SEA-CD40; VL of SEA-CD40
affinity for FcγRIIIa (rank among CD40 antibodies tested) [1]: highest affinity
affinity for FcγRIIb (rank among CD40 antibodies tested) [2]: lowest affinity

B2: SEA-CD70: nonfucosylated antibody targeting the CD70 antigen; VH and VL of SEQ ID NOs: 41 and 42 (antibody, V domains shown)
VH: QVQLVQSGAEVKKPGASVKVSCKASGYTFTNYGMNWVRQAPGQGLKWMGWINTYTGEPTYADAFKGRVTMTRDTSISTAYMELSRLRSDDTAVYYCARDYGDYGMDYWGQGTTVTVSS
VL: DIVMTQSPDSLAVSLGERATINCRASKSVSTSGYSFMHWYQQKPGQPPKLLIYLASNLESGVPDRFSGSGSGTDFTLTISSLQAEDVAVYYCQHSREVPWTFGQGTKVEIK
modifications: nonfucosylated; SEA-CD70 heavy chain variable region; SGN-CD70 light chain variable region
day at which tumors reached an average 5 fold increase of original size ([3]; day post implant, untreated 28.5): 34.5 days
days post treatment at which tumors reached an average 5 fold increase ([3]; untreated 9.5): 15.5 days post treatment

B3: SEA-BCMA: nonfucosylated antibody targeting B-cell maturation antigen (BCMA); VH and VL of SEQ ID NOs: 45 and 46 (antibody, V domains shown)
VH: QVQLVQSGAEVKKPGASVKLSCKASGYTFTDYYIHWVRQAPGQGLEWIGYINPNSGYTNYAQKFQGRATMTADKSINTAYVELSRLRSDDTAVYFCTRYMWERVTGFFDFWGQGTMVTVSS
VL: DIQMTQSPSSVSASVGDRVTITCLASEDISDDLAWYQQKPGKAPKVLVYTTSSLQSGVPSRFSGSGSGTDFTLTISSLQPEDFATYFCQQTYKFPPTFGGGTKVEIK
modifications: nonfucosylated; SGN-BCMA heavy chain variable region; SGN-BCMA light chain variable region
animals alive by day 160 [4]: zero
